The labels stand for the following.
B1: Azoarcus group I ribozyme (parent)
chain: GUGCCUUGCGCCGGGAAACCACGCAAGGGAUGGUGUCAAAUUCGGCGAAACCUAAGCGCCCGCCCGGGCGUAUGGCAACGCCGAGCCAAGCUUCGGCGCCUGCGCCGAUGAAGGUGUAGAGACUAGACGGCACCCACCUAAGGCAAACGCUAUGGUGAAGGCAUAGUCCAGGGAGUGGCGAAAGUCACACAAACCGG

The data set covers variants of B1. In words: reverse-splicing fitness (ratio to wild type); higher = more active; in vitro selection; Mg2+ level not given. The method, boiled down:
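An in vitro group I ribozyme library with randomized positions was T7-transcribed and gel-purified. In triplicate, 10 pmol RNA in EPPS pH 7.5 was reacted with 50 pmoles of a 30-nt RNA substrate for 1 h at 37 °C across several added MgCl2 levels (1–48 mM), then stopped with EDTA. Products were reverse transcribed from a substrate-complementary primer, PCR-amplified and sequenced (HiSeq 4000). Fitness is a variant's read proportion after selection over that before, normalised to wild type.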
In the case of A111U A120G A145U C150G C169U U176G, the reverse-splicing fitness worked out at 0.00433. Consider C82G A111U A120U C150G C169A U176G, for which the reverse-splicing fitness is 0.00291. On to C82G A111G A120U A145U C150G C169U, for which the reverse-splicing fitness came to 0.00254.

As for A111C A120U A145G C150G C169G, the reverse-splicing fitness amounted to 0.0117.

For the variant A120C C150G C169A U176G, the reverse-splicing fitness came out at 0.00553. In the case of C82G A111G A120U A145G C150G C169G U176A, the reverse-splicing fitness is 0.00894. Turning to C82U A111U A120C C150A C169A U176A, the reverse-splicing fitness came out at 0.0182. Consider A111G A120G A145C C150U C169A, for which the reverse-splicing fitness was determined as 0.0431. Consider C82U A120G A145C C150A C169A U176A, for which the reverse-splicing fitness was 0.0124. As for C82A A111C A120U A145C C150A C169G U176G, the reverse-splicing fitness turned out to be 0.00211. For C82A A111G A120C A145G C150A U176C, the reverse-splicing fitness was 0.0253. Take C82A A111G A120C A145G C150A U176G: the reverse-splicing fitness is 0.0103.

In the case of A111C A120U A145C C150U U176G, the reverse-splicing fitness was 0.0246.

For the variant C82A A111G A120U C150A C169G, the reverse-splicing fitness was 0.00463. As to A111G A120U A145U C150A C169G U176C, the reverse-splicing fitness worked out at 0.00285. Consider C82G A111G A120G A145G C150U C169G, for which the reverse-splicing fitness is 0.0181. Turning to C82G A111G A120U C150G U176C, the reverse-splicing fitness was determined as 0.00821. Consider C82U A111C A120C A145C C150A C169U U176C, for which the reverse-splicing fitness amounted to 0.0117. C82A A111G A120U A145G C150U U176C: the reverse-splicing fitness came to 0.0133. On to C82A A111U A120C A145C C150U C169U U176C, for which the reverse-splicing fitness amounted to 0.0133. Turning to C82U A120G A145U C169G U176C, the reverse-splicing fitness was determined as 0.0138.

Regarding C82A A111C A120C A145C C150A C169G U176C, the reverse-splicing fitness was determined as 0.024. Consider C82U A111G A120C A145G C169U U176G, for which the reverse-splicing fitness was 0.00401. Turning to C82A A111C A120U A145C U176A, the reverse-splicing fitness was found to be 0.00599.

Turning to C82A A111U A120C A145U C169A U176A, the reverse-splicing fitness worked out at 0.0227. The figure for C82G A120U A145G C150A is 0.0245; for C82G A111G A120G A145C C169U U176G it is 0.00427; for C82U A111U A120U A145U C150G C169U U176G it is 0.0024. For the variant A111U A120U A145C C150U C169G U176C, the reverse-splicing fitness stood at 0.00276. In the case of A111G A120C A145G C150G C169G, the reverse-splicing fitness worked out at 0.0082. The figure for C82G A111C A120U A145U C150G U176G is 0.00265.

In the case of C82G A111G A120C A145U C150U C169G U176G, the reverse-splicing fitness is 0.00596.

For the variant C82G A111C A120U C150U C169A U176C, the reverse-splicing fitness amounted to 0.00319. Turning to A111G A120C C169U U176A, the reverse-splicing fitness amounted to 0.0684. For the variant C82U A111G A120G A145C C150U C169A, the reverse-splicing fitness stood at 0.0078. On to C82G A111C A120C A145U C150A, for which the reverse-splicing fitness was 0.011.

For the variant C82G A111C A120C A145U C150U, the reverse-splicing fitness came to 0.0335. In the case of C82G A111C A120C A145U C150G it was 0.00916.

Turning to C82A A111U A120G A145U C150U C169U U176G, the reverse-splicing fitness worked out at 0.00524. C82A A111U A120U C150U C169U: the reverse-splicing fitness turned out to be 0.00507. Regarding C82G A111U A120U A145G C169G U176A, the reverse-splicing fitness came to 0.00533.

With C82G A120U A145U C169G, the reverse-splicing fitness came out at 0.00637. The figure for C82A A111U A120C A145G C150G C169A U176C is 0.016. The figure for C82A A111U A120U A145G C150U U176A is 0.01; for C82G A111C C150G C169U U176G it is 0.00599. The figure for C82G A111U A120U C150G U176A is 0.00389. A111U A120C A145U C150A C169G U176A: the reverse-splicing fitness was 0.0112.

Consider C82G A111G A120U A145C C150U C169G U176A, for which the reverse-splicing fitness is 0.00296.

As for A111C A120U A145C C150A, the reverse-splicing fitness worked out at 0.0314. With C82U A120C A145G C169A, the reverse-splicing fitness is 0.00815. A111U A145G C150U C169U: the reverse-splicing fitness was found to be 0.0923. On to C82U A111G A145U C150U C169U U176A, for which the reverse-splicing fitness amounted to 0.0117. In the case of C82U A111U A145G C150U C169U U176G, the reverse-splicing fitness came to 0.00571.

For the variant C82U C150A C169G U176A, the reverse-splicing fitness stood at 0.0177. For the variant C82G A111G A120G A145G C150U C169G U176G, the reverse-splicing fitness amounted to 0.00532. For C82G A111U A120U A145C C150G C169A U176G, the reverse-splicing fitness amounted to 0.00246. With C82G A120G A145U, the reverse-splicing fitness is 0.0294. On to C82A A111U A120G A145C C169U U176A, for which the reverse-splicing fitness came to 0.0212.

For the variant A111G A120C A145C U176A, the reverse-splicing fitness came to 0.42. In the case of A111U A120C C150G U176C, the reverse-splicing fitness was found to be 0.0262. With C82U A111G A120G A145U C169A U176A, the reverse-splicing fitness was 0.0102. Consider C82G A111U A120U A145C C150G U176A, for which the reverse-splicing fitness stood at 0.00296. In the case of C82U A111G A120C A145U C169G it was 0.00646; in that of C82A A111C A145C C150A U176C, 0.0176; in that of A111G A120C A145G C150G C169U U176A, 0.00706. For the variant A111G A120C A145U C150U U176G, the reverse-splicing fitness was 0.0965. In the case of C82A A120C A145C C150G U176C it was 0.0119. In the case of C82U A111G A120U A145G C150A C169U U176A, the reverse-splicing fitness stood at 0.00427. For the variant A111G C150U U176C, the reverse-splicing fitness turned out to be 0.646.

As to C82G A111C A145U C150G C169U, the reverse-splicing fitness amounted to 0.00891.

In the case of C82A A111C A120C A145C C150G C169G U176C, the reverse-splicing fitness is 0.0101.

For C82A A120C A145C C150A C169G U176C, the reverse-splicing fitness turned out to be 0.0244. For C82A A120C A145C C150A C169G U176G, the reverse-splicing fitness turned out to be 0.00625. Turning to C82A A120C A145G C150A C169A, the reverse-splicing fitness was found to be 0.0111. Turning to A111U A120U A145C C150G C169G U176C, the reverse-splicing fitness stood at 0.00254. For C82A A111U A120C C150G C169A U176A, the reverse-splicing fitness came to 0.0125. The figure for C82G A111U A120C C169U is 0.0134. Regarding C82U A111G C150A C169U U176C, the reverse-splicing fitness is 0.0161. Consider C82A A120G A145G C150A, for which the reverse-splicing fitness amounted to 0.0101. Regarding C82U A111U A120G A145G C150G C169U, the reverse-splicing fitness was found to be 0.0089.

With C82G A111C A120G C150U U176G, the reverse-splicing fitness turned out to be 0.00715. As to C82U A145U C150U C169A U176G, the reverse-splicing fitness came out at 0.0048. Take A111C A120C A145U C150U C169A U176A: the reverse-splicing fitness was 0.012.

(Values after the RNAGym collection of RNA variant scans (doi:10.1093/molbev/msab373).)
